System: peptide library, one residue held at a place counted from the S/T acceptor
Experiment: relative phosphorylation of the sub-library (ratio to the mean residue at this position); higher = residue favoured
Conditions: human
Outline: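 Each biotinylated degenerate peptide sub-library fixed one residue at one position around a central Ser/Thr and was incubated with a purified recombinant kinase, a human or orthologue construct, in 384-well plates. The 90 min reactions, under kinase-specific conditions, contained 50 μM peptide and 50 μM ATP spiked with γ-32P-ATP. Phosphorylation was read by phosphorimaging spots on streptavidin membranes and quantifying them by densitometry. Relative sub-library phosphorylation expresses each value as a ratio to the mean residue at that position.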

MAPK11, construct: Full length, sequence (Q15759 whole entry, looked up): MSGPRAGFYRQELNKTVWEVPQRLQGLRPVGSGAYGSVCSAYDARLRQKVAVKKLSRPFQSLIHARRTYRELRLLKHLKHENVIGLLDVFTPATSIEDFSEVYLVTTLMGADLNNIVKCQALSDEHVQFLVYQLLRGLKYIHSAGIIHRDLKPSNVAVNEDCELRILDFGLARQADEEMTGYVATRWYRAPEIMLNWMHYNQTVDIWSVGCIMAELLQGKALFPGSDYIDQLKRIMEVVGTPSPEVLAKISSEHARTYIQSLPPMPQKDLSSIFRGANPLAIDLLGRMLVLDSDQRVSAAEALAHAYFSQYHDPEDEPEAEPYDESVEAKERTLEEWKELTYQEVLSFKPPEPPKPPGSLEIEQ
RPS6KA3, construct: Full length, sequence (P51812 whole entry, looked up): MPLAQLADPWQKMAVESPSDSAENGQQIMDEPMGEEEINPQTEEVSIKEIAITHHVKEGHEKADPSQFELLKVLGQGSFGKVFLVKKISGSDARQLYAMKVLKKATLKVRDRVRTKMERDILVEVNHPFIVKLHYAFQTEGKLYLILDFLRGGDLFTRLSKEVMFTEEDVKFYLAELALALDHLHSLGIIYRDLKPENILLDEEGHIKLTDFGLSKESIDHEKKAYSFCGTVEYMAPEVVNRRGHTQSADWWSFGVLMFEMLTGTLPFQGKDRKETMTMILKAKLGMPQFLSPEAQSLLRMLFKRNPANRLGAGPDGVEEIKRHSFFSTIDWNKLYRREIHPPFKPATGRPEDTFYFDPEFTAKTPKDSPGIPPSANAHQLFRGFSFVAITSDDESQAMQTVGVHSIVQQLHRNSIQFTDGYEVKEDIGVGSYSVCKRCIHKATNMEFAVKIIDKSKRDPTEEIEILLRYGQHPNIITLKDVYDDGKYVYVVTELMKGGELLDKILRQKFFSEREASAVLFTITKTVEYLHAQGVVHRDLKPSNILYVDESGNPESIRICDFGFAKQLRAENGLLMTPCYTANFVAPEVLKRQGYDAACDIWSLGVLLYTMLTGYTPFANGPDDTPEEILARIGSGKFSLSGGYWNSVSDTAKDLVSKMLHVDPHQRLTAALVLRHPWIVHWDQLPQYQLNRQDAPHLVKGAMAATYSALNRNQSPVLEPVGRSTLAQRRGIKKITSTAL
CDK18, construct: Full length, sequence (Q07002 whole entry, looked up): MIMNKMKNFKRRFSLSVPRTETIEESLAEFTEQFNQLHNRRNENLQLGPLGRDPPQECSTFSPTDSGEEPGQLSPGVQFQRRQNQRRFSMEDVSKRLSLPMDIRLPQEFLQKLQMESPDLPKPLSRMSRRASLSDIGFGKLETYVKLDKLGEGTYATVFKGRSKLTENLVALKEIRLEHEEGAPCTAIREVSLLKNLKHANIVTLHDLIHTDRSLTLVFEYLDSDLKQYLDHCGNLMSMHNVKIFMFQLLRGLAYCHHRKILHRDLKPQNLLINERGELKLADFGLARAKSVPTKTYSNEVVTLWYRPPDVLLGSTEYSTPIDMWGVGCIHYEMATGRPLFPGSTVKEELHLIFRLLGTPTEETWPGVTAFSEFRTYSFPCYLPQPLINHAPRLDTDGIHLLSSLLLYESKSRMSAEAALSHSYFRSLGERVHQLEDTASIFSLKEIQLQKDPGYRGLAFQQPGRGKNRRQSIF
SIK2, construct: Full length, sequence (Q9H0K1 whole entry, looked up): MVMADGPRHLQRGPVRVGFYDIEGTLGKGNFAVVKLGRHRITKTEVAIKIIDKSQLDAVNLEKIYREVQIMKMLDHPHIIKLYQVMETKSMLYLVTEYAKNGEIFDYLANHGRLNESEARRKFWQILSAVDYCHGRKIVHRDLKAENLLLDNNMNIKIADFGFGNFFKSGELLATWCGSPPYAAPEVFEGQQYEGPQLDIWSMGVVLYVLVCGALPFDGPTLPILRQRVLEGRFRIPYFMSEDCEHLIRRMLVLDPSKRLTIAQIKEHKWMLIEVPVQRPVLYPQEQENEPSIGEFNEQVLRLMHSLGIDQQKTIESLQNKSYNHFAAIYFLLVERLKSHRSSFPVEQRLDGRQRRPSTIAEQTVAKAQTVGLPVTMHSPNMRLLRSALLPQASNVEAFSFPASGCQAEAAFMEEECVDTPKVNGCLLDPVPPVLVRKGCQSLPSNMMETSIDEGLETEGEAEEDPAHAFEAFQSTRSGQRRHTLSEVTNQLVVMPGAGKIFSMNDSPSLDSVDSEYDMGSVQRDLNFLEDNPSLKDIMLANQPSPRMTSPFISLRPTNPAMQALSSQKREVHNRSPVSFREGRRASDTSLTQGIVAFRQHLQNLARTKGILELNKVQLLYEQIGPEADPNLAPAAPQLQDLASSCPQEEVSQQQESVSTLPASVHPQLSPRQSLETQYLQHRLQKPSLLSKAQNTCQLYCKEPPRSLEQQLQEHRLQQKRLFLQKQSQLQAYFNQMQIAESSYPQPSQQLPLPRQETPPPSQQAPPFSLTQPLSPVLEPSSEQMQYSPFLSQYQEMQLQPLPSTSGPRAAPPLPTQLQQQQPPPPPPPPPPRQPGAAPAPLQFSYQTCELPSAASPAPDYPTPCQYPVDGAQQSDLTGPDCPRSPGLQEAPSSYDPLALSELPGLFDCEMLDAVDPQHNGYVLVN

CDK18, construct: Full length (from UniProt Q07002)
relative phosphorylation
Conditions	at +1	at +2	at +3	at +4	at -1	at -2	at -3	at -4	at -5
A fixed	0.339	0.788	1.01	1.29	1.11	1.37	1.15	1.33	1.04
D fixed	0.148	0.632	0.364	0.521	0.489	0.384	0.605	0.835	0.919
E fixed	0.127	0.377	0.292	0.355	0.348	0.463	0.719	0.823	0.831
F fixed	0.196	0.581	1.03	0.759	0.57	0.705	0.539	0.696	0.844
G fixed	1.13	0.837	0.922	2.23	2.13	1.11	2.12	1.24	1.15
H fixed	0.274	1.23	0.695	1.21	0.987	0.807	1.05	1.02	1.37
I fixed	0.178	0.705	1.03	0.634	0.247	0.72	0.569	0.788	0.804
K fixed	0.316	2.28	0.862	1.33	1.67	0.671	0.937	1.48	1.53
L fixed	0.199	0.877	2.5	0.581	0.561	0.963	0.589	1	1.16
M fixed	0.196	0.901	1.46	0.699	0.934	0.887	0.648	0.718	0.799
N fixed	0.239	1.11	0.806	1.16	1.02	0.777	1.06	1.27	1.12
P fixed	12.4	0.972	2.05	0.831	1.71	3.93	2.29	1.43	1.12
Q fixed	0.279	1.06	1.03	0.969	1.13	0.999	1.03	1.01	0.77
R fixed	0.281	2.23	0.719	1.79	1.9	0.94	1.33	0.941	0.827
V fixed	0.263	0.744	1.04	0.703	0.379	0.852	0.768	0.596	0.677
W fixed	0.236	0.782	0.703	1.09	0.911	0.886	0.852	1.05	1.12
Y fixed	0.184	0.887	0.498	0.845	0.914	0.543	0.748	0.765	0.911
pThr fixed	0.415	0.681	0.949	0.372	0.316	0.823	0.982	0.951	0.78
pTyr fixed	0.508	0.48	0.815	0.591	0.341	0.572	0.943	0.82	1.07

SIK2, construct: Full length (from UniProt Q9H0K1)
relative phosphorylation
Conditions	at +1	at +2	at +3	at +4	at -1	at -2	at -3	at -4	at -5
A fixed	0.683	0.923	0.762	0.745	0.883	1.45	0.789	0.944	0.972
D fixed	0.42	0.461	1.59	0.353	0.463	0.232	0.255	0.57	0.48
E fixed	0.487	0.486	0.54	0.309	0.388	0.208	0.327	0.599	0.463
F fixed	1.13	0.924	1.51	0.96	0.685	1.5	0.969	0.98	1.2
G fixed	0.622	0.518	0.556	0.631	2.45	0.96	0.658	0.991	0.89
H fixed	1.06	1.1	1.23	0.79	1.03	1.37	1.14	1.02	0.858
I fixed	1.05	0.988	0.821	2.46	0.591	0.561	0.627	0.762	1.09
K fixed	1.18	1.19	0.856	1.11	1.65	1.26	2.14	1.56	1.5
L fixed	1.17	1.15	0.988	2.94	0.929	0.52	0.752	0.828	1.76
M fixed	1.68	0.94	0.916	1.4	1.03	0.664	0.765	1.02	1.17
N fixed	1.03	1.03	2.08	0.635	1	0.583	0.526	0.828	0.757
P fixed	0.336	0.68	0.33	0.578	0.923	0.394	0.788	0.729	0.767
Q fixed	1.61	0.991	0.856	0.602	1.05	0.607	0.634	0.88	0.704
R fixed	1.48	1.7	1.03	0.83	1.77	1.4	3.76	2.09	1.41
V fixed	1	0.965	0.638	1.16	0.641	0.771	0.637	0.857	0.959
W fixed	0.951	1.74	1.19	0.809	0.605	2.67	1.37	1.29	1.04
Y fixed	1.11	1.21	1.12	0.688	0.918	1.85	0.864	1.06	0.967
pThr fixed	0.905	0.696	0.382	0.389	0.467	0.567	0.613	0.787	0.791
pTyr fixed	0.499	0.38	0.573	0.35	0.746	0.54	0.614	0.526	0.71

MAPK11, construct: Full length (from UniProt Q15759)
relative phosphorylation
Conditions	at +1	at +2	at +3	at +4	at -1	at -2	at -3	at -4	at -5
A fixed	1.65	1.14	1.35	0.935	1.22	0.953	1.26	1.14	1.12
D fixed	0.136	0.985	0.947	0.919	0.745	0.501	0.917	1.25	1.06
E fixed	0.12	0.81	0.98	0.818	0.765	0.338	1.03	1.13	0.921
F fixed	0.268	0.828	0.913	1.27	0.852	0.614	0.708	0.766	0.944
G fixed	0.841	1.14	1.08	1.19	1.24	0.73	1.53	1.21	1.22
H fixed	0.227	1.1	0.959	1.15	1.21	0.572	0.902	0.941	1.12
I fixed	0.304	1.15	1.11	1.05	0.676	1.16	1.04	0.885	0.88
K fixed	0.209	1.12	0.583	0.818	0.842	0.461	0.722	0.961	0.921
L fixed	0.337	1.04	1.01	1.14	1.37	1.46	1.09	0.982	1.08
M fixed	0.26	0.951	0.852	1.08	1.67	1.22	0.988	1.06	0.941
N fixed	0.141	0.874	0.632	0.764	0.705	0.585	0.886	0.952	0.956
P fixed	11.4	0.762	1.95	1.01	1.39	5.14	1.61	1.29	1.37
Q fixed	0.185	0.942	0.71	0.859	1.26	0.633	1.05	0.94	0.902
R fixed	0.206	1.08	0.676	0.871	0.847	0.505	0.835	0.823	0.834
V fixed	0.289	1.24	1.25	0.995	0.749	1.16	0.954	0.896	0.839
W fixed	0.206	0.792	0.975	1.04	0.618	0.437	0.723	0.946	0.913
Y fixed	0.2	1.05	1.02	1.1	0.833	0.53	0.748	0.83	0.981
pThr fixed	0.405	1.32	1.18	0.795	0.364	0.617	1.1	1.16	1.15
pTyr fixed	0.589	0.741	0.996	0.757	0.653	0.396	0.932	1.04	1.05

RPS6KA3, construct: Full length (from UniProt P51812)
relative phosphorylation
Conditions	at +1	at +2	at +3	at +4	at -1	at -2	at -3	at -4	at -5
A fixed	0.876	1.48	0.988	1.03	0.917	0.555	0.652	1.08	0.961
D fixed	0.617	1.08	1.48	1.39	0.636	0.658	0.452	0.62	0.501
E fixed	0.97	0.833	1.58	1.24	0.466	0.617	0.402	0.76	0.4
F fixed	0.848	0.548	0.78	0.679	0.709	0.568	0.327	0.682	0.703
G fixed	0.704	1.17	1.21	1.17	1.13	0.85	0.555	1.15	1.01
H fixed	1.16	1.34	1.14	0.914	1.01	0.979	0.566	0.911	0.892
I fixed	1.2	0.77	0.666	0.826	0.652	0.615	0.373	0.834	0.762
K fixed	1.16	1.08	0.972	1.17	1.49	2.6	1.7	1.8	2.04
L fixed	0.927	0.732	0.905	0.652	0.906	0.976	0.37	0.811	0.944
M fixed	1.1	0.727	0.722	0.828	0.933	0.614	0.291	0.99	0.736
N fixed	0.957	0.985	0.827	0.902	1.02	0.708	0.464	0.855	0.719
P fixed	0.432	0.677	0.997	1.6	2.36	0.457	0.785	0.863	0.951
Q fixed	1.22	0.716	0.808	0.895	0.935	0.962	0.641	1.01	0.836
R fixed	1.34	1.59	1.11	1.26	1.39	4.29	8.12	2.46	3.13
V fixed	1.45	1.07	0.839	0.941	0.752	0.591	0.393	0.698	0.852
W fixed	0.887	0.858	0.998	0.738	0.628	0.361	0.408	0.725	0.807
Y fixed	1.15	1.34	0.979	0.762	1.06	0.601	0.498	0.753	0.748
pThr fixed	1.89	1.03	1.64	2.38	0.318	0.319	0.343	0.719	0.648
pTyr fixed	1.7	1.14	2.08	1.47	0.543	0.3	0.306	0.448	0.668
